From patent publication US20220331453A1 (INDUSTRY UNIVERSITY COOPERATION FOUNDATION HANYANG …, published 2022)

Molecular target: T1, VEGFR1 (Flt1) on the membrane of HUVECs (human, UniProt P17948 27-1338)
T1 construct: whole, on cells; Endogenous receptor on HUVECs; also called fms-like tyrosine kinase-1
Assay: fluorescence imaging of HUVECs with dye-conjugated cage
Protocol: HUVECs were spread onto a 48-well plate at 4×10⁴ cells/well and then cultured overnight. The HUVECs were incubated with 50 ng/mL human recombinant rhVEGF₁₆₅ and dye-conjugated fusion protein cage at different concentrations for 15, 30 and 60 minutes at 37° C. The HUVECs were imaged in a […] (Zeiss, Oberkochen, Germany) using FITC.
A maleimide-modified fluorescent dye was conjugated at the thiol of HPC, and the conjugation of the fluorescent dye to the polypeptide was qualitatively identified by SDS-PAGE. The fluorescent dye-conjugated anti-Flt1-HPC4-EBPP[A₁G₄I₁]₆-PEDF 34-mer-EBPP[A₁G₄I₁]₆-HPC5 was visualized by exposure to UV light on SDS-PAGE without gel staining. In FIG. 5 (A) (b), the location of the dye-conjugated polypeptide is compared under UV light with that of a marker in a bright-field mode. The location corresponded to that of the fusion polypeptide on the copper-stained SDS-PAGE gel prior to the dye conjugation (FIG. 5 (A) (a)). The conjugation of the dye to anti-Flt1-HPC4-EBPP[A₁G₄I₁]₆-PEDF 34-mer-EBPP[A₁G₄I₁]₆-HPC5 was confirmed from the fluorescence spectrum. […] HUVECs were spread onto a […] plate and then cultured overnight. The HUVECs were incubated with 1 μM or 10 μM dye-conjugated polypeptide for 15, 30 or 60 minutes. […]

T1 sequence (P17948 27-1338): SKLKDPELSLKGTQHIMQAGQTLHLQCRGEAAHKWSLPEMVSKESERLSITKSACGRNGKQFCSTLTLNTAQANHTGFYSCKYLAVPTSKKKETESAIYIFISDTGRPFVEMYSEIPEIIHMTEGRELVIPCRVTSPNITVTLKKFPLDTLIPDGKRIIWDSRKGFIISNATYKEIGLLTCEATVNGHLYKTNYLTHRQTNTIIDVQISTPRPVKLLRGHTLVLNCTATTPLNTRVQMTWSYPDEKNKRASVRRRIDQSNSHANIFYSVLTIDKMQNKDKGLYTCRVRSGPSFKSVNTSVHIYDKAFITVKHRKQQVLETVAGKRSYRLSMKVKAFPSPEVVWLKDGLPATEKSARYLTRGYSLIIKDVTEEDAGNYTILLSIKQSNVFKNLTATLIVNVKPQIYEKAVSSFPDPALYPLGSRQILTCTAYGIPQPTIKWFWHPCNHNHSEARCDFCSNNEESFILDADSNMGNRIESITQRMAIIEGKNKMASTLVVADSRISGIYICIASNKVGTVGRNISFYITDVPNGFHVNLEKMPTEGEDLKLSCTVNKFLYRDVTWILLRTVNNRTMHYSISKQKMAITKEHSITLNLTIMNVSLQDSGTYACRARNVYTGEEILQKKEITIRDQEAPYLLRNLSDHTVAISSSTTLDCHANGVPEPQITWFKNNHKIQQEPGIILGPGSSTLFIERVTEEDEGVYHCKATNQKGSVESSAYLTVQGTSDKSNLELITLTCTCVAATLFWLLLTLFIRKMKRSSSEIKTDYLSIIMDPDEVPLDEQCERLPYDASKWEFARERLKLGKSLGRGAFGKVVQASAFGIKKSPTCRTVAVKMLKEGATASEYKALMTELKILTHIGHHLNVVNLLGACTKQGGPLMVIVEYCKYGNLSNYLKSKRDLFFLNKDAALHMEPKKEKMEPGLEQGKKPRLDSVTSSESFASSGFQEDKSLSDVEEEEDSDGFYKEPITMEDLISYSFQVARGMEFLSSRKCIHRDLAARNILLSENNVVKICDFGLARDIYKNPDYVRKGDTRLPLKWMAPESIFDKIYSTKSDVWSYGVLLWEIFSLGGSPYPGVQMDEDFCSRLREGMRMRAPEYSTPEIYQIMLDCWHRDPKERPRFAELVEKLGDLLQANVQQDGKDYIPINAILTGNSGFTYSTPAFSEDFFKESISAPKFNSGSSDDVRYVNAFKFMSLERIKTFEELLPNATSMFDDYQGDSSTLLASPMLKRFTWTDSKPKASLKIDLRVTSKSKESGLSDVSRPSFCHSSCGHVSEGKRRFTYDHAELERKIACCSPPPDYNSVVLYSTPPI

binding result: binds
B1: fluorescent dye-conjugated anti-Flt1-HPC4-EBPP[A1G4I1]6-PEDF 34-mer-EBPP[A1G4I1]6-HPC5 (designed binder)
chain: GNQWFISSQIRQNYSTDVEAAVNSLVNLYLQASYTYLSLGFYFDRDDVALEGVSHFFRELAEEKREGYERLLKMQNQRGGRALFQDIKKPAEDEWGKTPDAMKAAMALEKKLNQALLDLHALGSARTDPHLCDFLETHFLDEEVKLIKKMGDHLTNLHRLGGVPAGGVPAAGVPAGGVPAGGVPAIGVPAGGVPAGGVPAAGVPAGGVPAGGVPAIGVPAGGVPAGGVPAAGVPAGGVPAGGVPAIGVPAGGVPAGGVPAAGVPAGGVPAGGVPAIGVPAGGVPAGGVPAAGVPAGGVPAGGVPAIGVPAGGVPAGGVPAAGVPAGGVPAGGVPAIGVPAGGDPFFKVPVNKLAAAVSNFGYDLYRVRSSTSPTTNVPAGGVPAAGVPAGGVPAGGVPAIGVPAGGVPAGGVPAAGVPAGGVPAGGVPAIGVPAGGVPAGGVPAAGVPAGGVPAGGVPAIGVPAGGVPAGGVPAAGVPAGGVPAGGVPAIGVPAGGVPAGGVPAAGVPAGGVPAGGVPAIGVPAGGVPAGGVPAAGVPAGGVPAGGVPAIGVPAGGPEAGLGEYLFERLTLKHD
modifications: Alexa Fluor 488 C5 maleimide conjugated at cysteine (thiol of HPC) via thiol-maleimide reaction
notes: also called dye-conjugated fusion protein cage; dye-conjugated polypeptide
